Data: the DeepSol protein solubility set

Assay: soluble on expression in E. coli; label from the status in PepcDB or PDB records

| Sequence | soluble on expression in E. coli |
| --- | --- |
| MKLEGVWKVFGNVVAVRDVNLYIEDKEFVSILGPSGSGKTTLLYLIAGIYKPSRGRIYFNDVDVTDLPPNKRNIGLVFQNYALYPHMTVYENIAFPLRLRNFGEPAIKEKVLSVAKLLGIEGLLDRYPAQLSGGQQQRVALARALVKEPEVLLLDEPLSNLDALLRIKIRSELKKLQKELGITAIYVTHDQSEALAMADRIAIIASGVIQQVGKPWDVYYKPRNVFVASFIGTPPANLVSVPLDSSRRCLLLPGGGRYCPPRRIAEKLAAVKTNSVILGFRPEVAVLSESPLGDYVSMEAEVYTVETLGRENIVTLLVNGSQVKVIVPPVVEPRPGSRIFINIEEDKVMYFDPETEINVEYLEVPGMEEAIAESAGTLRKQEMEEEWD | soluble |
| MKLESLVEEARQCQDRTVAVAAAEDEEVIEAVAMALEHRLGRFVLYGDRERLGRLLKEKGCARFSDVDVVHANSIGQAAELAVRAVHLNEADALMKGHVPTATLLKAVLNKEYGLRTGKVLSHVAVFEVPEFDRFVIVTDAAMNIAPDLEQKAQIVNNAVSIARSIGIERPKVAALAAVETVNPAMPATVDAAALAMMQKRGQIEHCLLDGPLALDNAVSLAAAKHKRIESEVAGQADILLVPDIESGNMLYKSLVYFANARVGAVIAGAKAPIVLTSRADSAESKLYSLALAICSAAK | not soluble |
| MKLIAESGSTRTEWALVEDNHLVQRVFTEGLNPFFQTRREISRSVRLGLPESFFKKKLDQVYYYGAGCSSYEKKNILGASLVAQFKTPIQVESDLLAAARGLFKCEAGIACILGTGSNSCFYDGKIIVKNVKAAGYILGDEGSGAVLGKLFLADLLKGLAPKELANEFHEKFRISVNDVMESVYNLPFPNRFLGTIAYFLGDYMDNEYVYNLLTNNLRSFFNRNVCQYDYINYPIRFVGSLAYAYPDILQEVAQEFGVEIDVIEETPMNGLIEFHSMNIEESMAGDPLEHHHHHH | not soluble |
| MKLITAIVQDKDASSVANALVEHNIRATRLASAGGFLRSGNSTFLIAVKDDEVNTTIGVIKEHSKTRKQFVTPPVGLDMSIDTIGQPIEVEIGGATIIVQAIEDFQHF | not soluble |
| MKLKAMYSFLSDDLAAVEEELERTVRSEYGPLGEAALHLLQAGGKRIRPVFVLLSARFGHYDFERIKHVAVALELIHMASLVHDDVIDDADVRRGRPTIKARWSNRFAMYTGDYLFARSLERMAELDSPRAHQVLAKTIVEVCHGEIEQIKDKYRFDQPLRTYLRRIRRKTALLIAASCQLGALAAGAPEAVANRLYWFGHCVGMSFQITDDILDFTGTEEQLGKPAGSDLQQGNVTLPVLYALCDEQVRAKITAVNADTDAEEMAAVLAAIKQTDAIERSYALSDRYLEKALRLLGELPANEARTLLHDLALYIGKRDY | not soluble |
| MKLKTTLFGNVYQFKDVKEVLAKANELRSGDVLAGVAAASSQERVAAKQVLSEMTVADIRNNPVIAYEDDCVTRLIQDDVNETAYNQIKNWSISELREYVLSDETSVDDIAFTRKGLTSEVVAAVAKICSNADLIYGAKKMPVIKKANTTIGIPGTFSARLQPNDTRDDVQSIAAQIYEGLSFGVGDAVIGVNPVTDDVENLSRVLDTIYGVIDKFNIPTQGCVLAHVTTQIEAIRRGAPGGLIFQSICGSEKGLKEFGVELAMLDEARAVGAEFNRIAGENCLYFETGQGSALSAGANFGADQVTMEARNYGLARHYDPFIVNTVVGFIGPEYLYNDRQIIRAGLEDHFMGKLSGISMGCDCCYTNHADADQNLNENLMILLATAGCNYIMGMPLGDDIMLNYQTTAFHDTATVRQLLNLRPSPEFERWLESMGIMANGRLTKRAGDPSLFF | soluble |
| MKLMKKNTDDGAKIYTPLTLKLYDWWVLGVSNRLAWGCPTKEHLLPHFLEHLGNNHLDIGVGTGFYLTHVPESSLISLMDLNEASLNAASTRAGESKIKHKISHDVFDPYPAALHGQFDSISMFYLLHCLPGNISTKSCVIRNAAQALTDDGTLYGATILGDGVVHNSFGQKLMRIYNQKGIFSNTKDSEEGLTHILSEHFENVKTKVKGTVVMFSASGKK | not soluble |
| MKLRSVTYALFIAGLAAFSTSSLAAQSLRFGYETSQTDSQHIAAKKFNDLLQERTKGELKLKLFPDSTLGNAQAMISGVRGGTIDMEMSGSNNFAGLSPVMNLLDVPFLFRDTAHAHKTLDGKVGDDLKASLEGKGLKVLAYWENGWRDVTNSRAPVKTPADLKGLKIRTNNSPMNIAAFKVFGANPIPMPFAEVYTGLETRTIDAQEHPINVVWSAKFFEVQKFLSLTHHAYSPLLVVINKAKFDGLSPEFQQALVSSAQEAGNYQRKLVAEDQQKIIDGMKEAGVEVITDLDRKAFSDALGNQVRDMFVKDVPQGADLLKAVDEVQ | not soluble |
| MKLTDRWFTSISEDEKGNIVFVNGRLELDEFRLSGKLKIRIEIRWPYEADEQGLPTESAGKRIEEIELLIRKAMEKDKLAIMTGNYTGGGTKYWVYYARTERVFGERLNEVLAPYETLPLEIECEVDTDWEEYLDMLSMKDENSI | not soluble |
| MKMYADERREHIYSYIKSHKRATVKQLSDYLSVTEATVRSDLRRLESENKLTRTHGGAKVTENIGSKFNFSYRLTQKHGEKYKISKSALKKIKPQQCIMIDASSTTYELAKLLAETTMELTIITNGLENAVLLKENPHLTVLVVGGFVSQDSNAITGNIDSQILEMYHIDYFFLSANGFTLENGLTDFSLPEVQLKKQMVQESENVIALIDKSKFGVSSTLSFAKISDINEVITDEKPEHKWLKHVPFSVTVAQLEHHHHHH | soluble |
| MKNASVITVGNEILKGRTVNTNAAFIGNFLTYHGYQVRRGFVVMDDLDEIGWAFRVALEVSDLVVSSGGLGPTFDDMTVEGFAKCIGQDLRIDEDALAMIKKKYGQADLTPQRLKMAKIPPSCRPIENPVGTAPGLICAVGGKKVIILPGVPKEMEALLKAMEKDIIIPDTHYYDDSVIIADVMESAFAPYVDRIMKEFDGIYVKSHPRNVEVKNPELEIEISGFGEDEAALRKKIEDAIARAGEYAVKLGGSVKR | not soluble |
| MKNDVISPEFDENGRPLRRIRSFVRRQGRLTKGQEHALENYWPVMGVEFSEDMLDFPALFGREAPVTLEIGFGMGASLVAMAKDRPEQDFLGIEVHSPGVGACLASAHEEGLSNLRVMCHDAVEVLHKMIPDNSLRMVQLFFPDPWHKARHNKRRIVQVPFAELVKSKLQLGGVFHMATDWEPYAEHMLEVMSSIDGYKNLSESNDYVPRPASRPVTKFEQRGHRLGHGVWDLMFERVK | soluble |
| MKNELICYKQMPVWTKDNLPQMFQEKHNTKVGTWGKLTVLKGKLKFYELTENGDVIAEHIFTPESHIPFVEPQAWHRVEALSDDLECTLGFYCKKEDYFSKKYNTTAIHGDVVDAAKIISPCKVLDLGCGQGRNSLYLSLLGYDVTSWDHNENSIAFLNETKEKENLNISTALYDINAANIQENYDFIVSTVVFMFLNRERVPSIIKNMKEHTNVGGYNLIVAAMSTDDVPCPLPFSFTFAENELKEYYKDWEFLEYNENMGELHKTDENGNRIKMKFATMLARKKLEHHHHHH | not soluble |
| MKNERIEKLQESWELDTRWKGITRPYSAEDVIRLRGSIDIEHTLARRGAEKLWASLHTEDYINALGALTGNQAMQQVKAGLKAIYLSGWQVAADANLSGHMYPDQSLYPANSVPAVVKRINQTLQRADQIQHMEGSGDTDYFVPIVADAEAGFGGQLNVFELMKGMIEAGASGVHFEDQLSSEKKCGHLGGKVLLPTQTAVRNLISARLAADVMGVPTIIVARTDADAADLITSDIDPVDKAFITGERTPEGFYRTKAGLDQAIARGLAYAPYADLVWCETSEPNLEDAKRFADAIHKEHPGKLLAYNCSPSFNWKQKLDEKTIASFQKEIASYGYKFQFVTLAGFHSLNYGMFELARGYKERGMAAYSELQQAEFAAEKHGYSATRHQREVGTGYFDEVAQVITGGTSSTTALKGSTEEAQFTK | not soluble |
| MKNIKDEWVQIALDLTSGLSSKDRFERLLSTIRNALKCDASALLLFKNQYFSPLATNGLDGDVIGRRFAISQHPRLEAIARAGDIVRFPSDSDLPDPYDGLIANEERQLQVHSCIGLPLLVNERLIGAVTIDAFDPTQFDSFTNKELRIISALAATSLHTALLMERLENQS | not soluble |
